Laboratory results as given in patent publication US10889826B2, “Methods and compositions for producing epidermal growth factor (EGF) in soybeans” (ARIZONA BOARD OF REGENTS ON BEHALF OF THE UNIVERSITY OF …, priority 2017, dated 2021).

Key:
Hela cell EGFR [1] = biological target: T1, Hela cell EGFR (Homo sapiens, UniProt P00533); assay: Immunocytochemistry assay of EGFR internalization in Hela cells; type: cell-based; settings: Hela cells treated 6 hours; FIG. 5C
T1 construct: soybean produced hEGF induces a rapid phosphorylation of Hela cell EGFR; endogenous in cells; host or cells: HeLa cells (American Tissue Culture Collection)
Method: (§1) Hela cells (obtained from American Tissue Culture Collection) were cultured in Minimum Essential Media (MEM) complemented with 10% Fetal Bovine Serum (FBS), 100 units/ml penicillin, and 100 μg/ml streptomycin. For western blotting assay, cells grown in 6-well plate were kept in serum free MEM media for 24 hours. Cells were then either kept in serum free medium (control) or stimulated with soymilk alone, soy EGF or commercial recombined hEGF for different time period as indicated. Cells were lysed by directly adding 1×SDS sample buffer (50 mM Tris-HCl, pH 6.8, 10% glycerol, 2% SDS and 5% 13-ME) to the cells after washing 3 times with 1×PBS. EGF bio-activity was determined via EGFR phosphorylation and down-stream AKT phosphorylation. Total EGFR was also measured since EGFR is known to undergo internalization when stimulated with EGF. Antibodies used in western blot are anti-p-EGFR (Tyr1068) (#2234, Cell Signaling Technology), anti-total EGFR (#06-847, Millipore), anti-p-AKT (#4060, Cell Signaling Technology) and anti-Lamin B1 (#13435, Cell Signaling Technology). […] EGFR was labeled using anti-EGFR antibody (#4267, Cell Signaling Technology) and detected with Alexa Fluor 594 Goat anti-rabbit IgG (#A11012, life technology). […]

Hela cell EGFR [2] = biological target: T1, Hela cell EGFR; assay: EGF bioactivity in Hela cells by western blotting (pEGFR, total EGFR); type: cell-based; settings: for overall EGF bioactivity: internalization, degradation and phosphorylation of EGFR: HeLa cells, compared with commercial rhEGF
Method: Hela cells (obtained from American Tissue Culture Collection) were cultured in Minimum Essential Media (MEM) complemented with 10% Fetal Bovine Serum (FBS), 100 units/ml penicillin, and 100 μg/ml streptomycin. For western blotting assay, cells grown in 6-well plate were kept in serum free MEM media for 24 hours. […] Cells were lysed by directly adding 1×SDS sample buffer (50 mM Tris-HCl, pH 6.8, 10% glycerol, 2% SDS and 5% 13-ME) to the cells after washing 3 times with 1×PBS. EGF bio-activity was determined via EGFR phosphorylation and down-stream AKT phosphorylation. Total EGFR was also measured since EGFR is known to undergo internalization when stimulated with EGF. Antibodies used in western blot are anti-p-EGFR (Tyr1068) (#2234, Cell Signaling Technology), anti-total EGFR (#06-847, Millipore), anti-p-AKT (#4060, Cell Signaling Technology) and anti-Lamin B1 (#13435, Cell Signaling Technology). For immunocytochemistry assay, cells were grown on coverslip in 6-well plate and kept in serum free media for 24 hours before stimulation, cells were then either kept in serum free media (control) or stimulated with human or soy EGF for 6 hours. Cells were washed with PBS and fixed with 4% formalin. EGFR was labeled using anti-EGFR antibody (#4267, Cell Signaling Technology) and detected with Alexa Fluor 594 Goat anti-rabbit IgG (#A11012, life technology). The cell nuclei were shown using mounting medium with DAPI (#H-1200, Vectorshield).

[3] = Stability of rhEGF in soymilk, read out by EGFR bioactivity in Hela cells; type: physicochemical; settings: in soymilk over 24 hours; bioactivity compared with control rhEGF; FIG. 5B
Method: as §1

Substance | internalization of the EGFR (immunohistochemical assay) (Hela cell EGFR [1]) | overall EGF bioactivity: internalization, degradation and phosphorylation of EGFR (Hela cell EGFR [2]; listed as EGF protein produced in soybean seed) | overall EGF bioactivity: internalization, degradation and phosphorylation of EGFR (Hela cell EGFR [2]; listed as soybean-produced hEGF) | internalization and degradation of EGFR (decrease in abundance by immunoblot) (Hela cell EGFR [2]; Hela cells, 0.1 μg/ml, FIG. 5B) | EGFR phosphorylation (pEGFR) (Hela cell EGFR [2]; Hela cells, soymilk from ShEGF soybeans at 0.1, 0.05, 0.025 μg/ml, FIG. 5A) | EGFR degradation (Hela cell EGFR [2]; Hela cells, soymilk from seeds producing ShEGF at 0.1, 0.05, 0.025 μg/ml, FIG. 5A) | degradation of EGF in soymilk [3]
ShEGF: human EGF produced in transgenic soybean seeds from a synthetic soybean codon optimized hEGF gene with N-terminal ER signal (SEQ ID NO: 1) (SLSSAENSDSECPLSHDGYCLHDGVCMYIEALDKYACNCVVGYIGERCQYRDLKWWELR; Modified EGF DNA sequence) | induces internalization of the EGFR comparable to that from control rhEGF | bioactive and comparable to commercially available hEGF | indistinguishable from the bioactivity of commercial rhEGF | induces an internalization and degradation of EGFR | induced pEGFR comparable to control rhEGF | induced concentration-dependent EGFR degradation comparable to the effect of rhEGF | –
rhEGF: commercial recombinant human EGF | – | – | – | – | – | – | not degraded in soymilk over 24 hours
